Experimental data taken from PMC8083607 (National Science Review, 2021).

B1: FC120 (antibody, V domains shown)
VH: EVQLLESGAEVKKPGASVKVSCKASGYTFTSYYMHWVRQAPGQGLEWMGIINPSGGSTSYAQKFQGRVTMTRDTSTSTVYMELSSLRSEDTAVYYCARGGGHALDIWGQGTMVTVSS
VL: QSVLTQPPSVSGAPGQKVTISCSGSSSNIGNNYVSWYQQLPGTAPKLLIYDNNKRPSGIPDRFSGSKSGTSATLGITGLQTGDEADYYCGTWDSSLSAWVFGGGTKLTVL
B2: FC05 (antibody, V domains shown)
VH: VQLLEQSGAEVKKPGASVRVSCKVSGYTLPEVAMHWVRQAPGKGLEWMGGFDPEDGETMYAQKFQGRVTMTEDTSTDTAYMELSSLRSEDTAVYYCATTTPFSSSYWFDPWGQGTLVTVSS
VL: QSVLTQAPSVSGAPGQKVTISCSGSSSNIGNNYVSWYQQLPGTAPKLLIYDNNKRPSGIPDRFSGSKSGTSATLGITGLQTGDEADYYCGTWDSSLSAVVFGGGTKLTVL
notes: also called FC05 mAb
B3: FC06 (antibody, V domains shown)
VH: EVQLLESGGGVVQPGRSLRLSCAASGFTFSSYAMHWVRQAPGEGLEWVAVISYDGSNKYYADSVKGRFTISRDNSKNTLYLQMNSLRAGDTAVYYCARLNYYGSGFYYRLGDDYWGQGTLVTVSS
VL: DIELTQSPSSLSASEGDRVTITCRASQGIRNDLGWYQQKPGKAPKRLIYGAPSLQSGVPSRFSGSGSGTEFTLTISTLQPEDSATYYCLQHNKYPWTFGQGTKVEIK
B4: FC07 (antibody, V domains shown)
VH: EVQLLESGGGLVQPGGSLRLSCAASGFTFGSYAMSWVRQAPGKGLEWVSSISGSGGSTYYADSAKGRFTISRDNSKNTLYLQMNSLRAEDTAVYYCAKSPNYDILTGYYNWAGYYFDYWGQGTLVTVSS
VL: DIELTQSPGTLSLSPGDRATLSCRASRGVSSNSLAWYRQRPGESPRLVISGASTRATGIPERFSGSGSGTDFSLSISRLQPEDFAVYYCQQYGSFPFTFGPGTTVDV
B5: FC11 (antibody, V domains shown)
VH: EVQLLESGGGVVQPGRSLRLSCAASGFTFSYYGMHWVRQAPGTGLEWVAVISYDGSNEYYADSVKGRFTISRDNSKNTLYLQMNSLRAEDTAVYYCAKAMFLGDSSGLTGLDMDVWGQGTTVTVSS
VL: DIELTQSPGTLSLSPGERATLSCRASQSVSSYLAWYQQKPGQAPRLLIYDASNRATGIPARFSGSGSGTDFTLTISSLEPEDFALYYCQQRGNWPPTFGGGTKLEIK
B6: FC124 (antibody, V domains shown)
VH: EVQLLESGGGVVQPGRSLRLSCAASGFTFSSYAMHWVRQAPGKGLEWVALISYDGINKYYADSVNGRFTISRDNSKYTLYLQMNSLRAEDTAVYYCARAHRGSYYYGMDVWGQGTMVTVSS
VL: DIELTQSPGTLSLSPGERATLYCRASQSVSSSYLAWYQQKPGQAPRLLIYGAFGRAAGIPDRFRGSGSGTQFTLTISRLEPEDSAVYFCQQYGQSPLYSFGQGTKLEIK
B7: FC118 (antibody, V domains shown)
VH: EVQLLESGGGVVQPGRSLRLSCAASGFTFSSYAMHWVRQAPGKGLEWVAVISYDGSNKYYADSVKGRFTISRDNSKNTLYLQMNSLRAEDTAVYYCARARGGSYLYGMDVWGQGAMVTVSS
VL: DIELTQSPSSLAASVGDTVTITCRASQTIGKYLTWYQKKPGRAPDLLIYAASRLQSGVPSRFSGRASGTEFTLTISSLQPEDFATYFCQHTYRTLSFGPGTKVDLK
B8: FC122 (antibody, V domains shown)
VH: EVQLLESGGGVVQPGRSLRLSCAASGFTFSSYAMHWVRQAPGKGLEWVALISYDGINKYYADSVNGRFTISRDNSKYTLYLQMNSLRAEDTAVYYCARAHRGSYYYGMDVWGQGTMVTVSS
VL: DIELTQSPSSLSASVGDSVTITCRGSQIISRYLNWYQQKPGKAPKLLIYAASTLQSGVPSRFSGSGSGTEFTLSISSLEPEDFATYYCQQSYAIPYTFGQGTRLEI

How the values were obtained:
Assay in all cases: ELISA
Conditions in all cases: both partners purified
MERS-CoV S2 = MERS-CoV S2 (MERS-CoV, strain not named (entry: …, UniProt K9N5Q8))
Sequence of MERS-CoV S2 (MERS-CoV, strain not named (K9N5Q8 whole entry, looked up): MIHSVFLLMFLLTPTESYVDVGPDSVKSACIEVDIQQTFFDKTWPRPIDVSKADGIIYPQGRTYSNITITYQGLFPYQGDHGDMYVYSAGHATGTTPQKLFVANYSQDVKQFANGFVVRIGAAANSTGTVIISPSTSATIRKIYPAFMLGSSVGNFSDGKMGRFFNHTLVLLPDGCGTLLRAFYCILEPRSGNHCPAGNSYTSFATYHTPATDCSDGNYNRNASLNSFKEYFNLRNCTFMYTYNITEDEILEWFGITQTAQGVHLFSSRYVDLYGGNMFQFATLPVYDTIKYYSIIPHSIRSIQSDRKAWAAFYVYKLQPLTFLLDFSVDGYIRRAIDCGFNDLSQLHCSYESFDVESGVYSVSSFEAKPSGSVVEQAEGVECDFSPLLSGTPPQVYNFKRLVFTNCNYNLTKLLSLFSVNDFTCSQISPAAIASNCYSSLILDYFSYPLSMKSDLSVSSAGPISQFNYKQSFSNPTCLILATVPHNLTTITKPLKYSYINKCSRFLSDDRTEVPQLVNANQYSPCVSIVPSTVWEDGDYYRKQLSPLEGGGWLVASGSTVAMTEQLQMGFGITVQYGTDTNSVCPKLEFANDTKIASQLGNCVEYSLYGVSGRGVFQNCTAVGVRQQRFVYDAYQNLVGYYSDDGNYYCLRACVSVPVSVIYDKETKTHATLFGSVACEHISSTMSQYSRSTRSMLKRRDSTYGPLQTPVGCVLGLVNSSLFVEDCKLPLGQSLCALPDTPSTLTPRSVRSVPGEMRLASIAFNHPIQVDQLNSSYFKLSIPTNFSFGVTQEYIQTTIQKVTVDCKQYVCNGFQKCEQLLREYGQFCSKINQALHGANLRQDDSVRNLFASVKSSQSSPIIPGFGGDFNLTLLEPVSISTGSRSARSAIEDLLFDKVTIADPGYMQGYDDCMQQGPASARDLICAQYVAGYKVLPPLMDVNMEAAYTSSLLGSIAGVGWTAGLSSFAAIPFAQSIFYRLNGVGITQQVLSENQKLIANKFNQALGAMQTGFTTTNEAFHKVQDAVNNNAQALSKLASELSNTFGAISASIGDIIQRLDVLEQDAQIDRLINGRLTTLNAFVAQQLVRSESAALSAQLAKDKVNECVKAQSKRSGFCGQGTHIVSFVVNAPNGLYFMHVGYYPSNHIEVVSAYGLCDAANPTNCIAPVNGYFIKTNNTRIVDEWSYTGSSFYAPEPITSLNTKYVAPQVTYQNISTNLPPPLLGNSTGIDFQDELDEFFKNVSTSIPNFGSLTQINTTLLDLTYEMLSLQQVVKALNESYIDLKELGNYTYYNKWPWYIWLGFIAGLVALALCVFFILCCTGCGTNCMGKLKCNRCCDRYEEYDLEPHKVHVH

SARS-CoV S2 = SARS-CoV S2 (SARS-CoV, strain not named (reference …, UniProt P59594))
[1] = target: SARS-CoV-2 S2 (recombinant) (SARS-CoV-2 Wuhan-Hu-1 (MN908947.3 used …, UniProt P0DTC2))
[2] = target: T1, SARS-CoV-2 NTD (recombinant, limits not stated) (SARS-CoV-2 Wuhan-Hu-1 (MN908947.3), UniProt P0DTC2)
T1 construct: also called N-terminal domain

SARS-CoV NTD = SARS-CoV NTD (SARS-CoV, strain not named (reference …, UniProt P59594))
SARS-CoV RBD = SARS-CoV RBD (Severe acute respiratory syndrome …, UniProt P59594)

Binder	binding result (MERS-CoV S2)	binding result (SARS-CoV S2)	binding result [1]	binding result [2]	also measured
B1	binds	binds	binds		
B2				binds	
B3				binds	
B4				binds	binding result (SARS-CoV NTD): binds
B5					binding result (SARS-CoV RBD): binds
B6	binds	binds	binds		
B7	binds	binds	binds		
B8			binds		
